Data published in article PMC12445699.

Tests used:
[1] = target: H3.3S31ph-nucleosome (H3.3-nucleosome with Ser31 phosphorylation) (UniProt P84243)
H3.3S31E-nucleosome = H3.3S31E-nucleosome (UniProt P84243)
H3.3S31A-nucleosome = H3.3S31A-nucleosome (UniProt P84243)
[2] = target: H3.3-nucleosome (mono-nucleosome with the variant H3.3) (UniProt P84243)
[3] = target: H3-nucleosome (mono-nucleosome with canonical H3) (UniProt P84233)

Substance: FACT (Facilitates Chromatin Transcription) complex (from UniProt Q9Y5B9 1-1047; Q08945 1-709)
- force of disruption in the first stretching cycle in the presence of FACT; no transitions in later cycles (magnetic tweezers) [1]: 13.9 pN
- rupture force at which the nucleosome is completely disrupted in the presence of FACT (magnetic tweezers) (H3.3S31E-nucleosome): 25.4 pN
- rupture force at which the nucleosome is completely disrupted in the presence of FACT (magnetic tweezers) (H3.3S31A-nucleosome): 25.4 pN
- rupture force at which the nucleosome is completely disrupted in the presence of FACT (magnetic tweezers) [2]: 24.5 pN
- rupture force at which the nucleosome is completely disrupted in the presence of FACT (magnetic tweezers) [3]: 6.7 pN
